Test results from patent publication EP4755919A1, “ANTI-TROP2 ANTIBODY, CONJUGATE COMPRISING SAID ANTIBODY, AND USE THEREOF” (Hanano Technologies Limited, priority 2023, dated 2024).

Tests used:
Trop2 [1] = target: T1, Trop2 (UniProt P09758 27-323, limits assumed); assay: flow cytometry on A431 cells, APC anti-HA detection
T1 construct: whole, on cells; also called TACSTD2; Trop2 on A431 cells
T1 sequence (looked up): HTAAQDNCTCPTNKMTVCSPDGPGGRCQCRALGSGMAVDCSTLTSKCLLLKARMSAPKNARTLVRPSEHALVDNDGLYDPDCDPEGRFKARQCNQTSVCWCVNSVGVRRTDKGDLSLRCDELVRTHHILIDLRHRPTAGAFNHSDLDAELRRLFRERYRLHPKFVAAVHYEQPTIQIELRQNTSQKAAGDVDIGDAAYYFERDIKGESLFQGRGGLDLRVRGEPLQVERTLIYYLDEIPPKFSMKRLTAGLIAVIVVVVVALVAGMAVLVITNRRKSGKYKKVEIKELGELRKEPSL

Trop2 [2] = target: T1, Trop2; assay: flow cytometry on BxPC3 cells, APC anti-HA detection
Trop2 [3] = target: T1, Trop2; assay: flow cytometry on A431 and BxPC3 cells, human albumin added during incubation, goat anti-VHH and Alexa Fluor488 donkey anti-goat detection
A431 cells [4] = assay: Cell killing activity on A431 cells by Cell Counting Kit-8 (CCK8); type: cell-based; conditions: pre-incubated with human serum albumin, 96 hours culture, CCK8 OD450 (FIG.7)
Procedure: (§1) The long-acting Trop2 single domain antibody conjugated drug HuNb1-Alb […]-MMAE was gradiently diluted in cell medium and incubated with human serum albumin for 20 minutes, then co-incubated with A431 cells and BxPC3 cells, respectively. Cell Counting Kit-8 was added after 96 hours of culture at 37°C in 5% CO2 incubator, and the cells were incubated in the incubator for 2.5 hours. After reading the data (OD450) in the microplate reader, IC50 was calculated.

BxPC3 cells [5] = assay: Binding activity of long-acting Trop2 antibody conjugated drug to BxPC3 cells by flow cytometry
Procedure: (§2) Flow cytometry was used to detect the binding activity of these candidate single domain antibodies to Trop2 high expression cell line A431. After the cultured A431 cells were digested with trypsin and neutralized in complete medium, the cells were washed once with PBS, collected and counted, and the cells were added to a 96-well V-bottom plate, 2E5 cells/well. Diluted candidate single domain antibodies and control antibodies BMK1, BMK2 and BMK3 (control antibody sequences are all referred to patent CN111518212B, where BMK1 sequence is the amino acid sequence as set forth in SEQ ID NO: 78, BMK2 sequence is the amino acid sequence as set forth in SEQ ID NO: 65, and BMK3 sequence is the amino acid sequence as set forth in SEQ ID NO: 68) were added to the plate respectively and incubated at 4°C for 40min. After centrifugation, cells were washed with PBS twice, and APC anti-HA antibody was added to incubate at 4°C for 40min. […] APC signal of each sample was detected by flow cytometry.
(§3) The long-acting Trop2 antibody conjugated drug HuNb1-Alb Nb1-MMAE was incubated with A431 and BxPC3 cells, and the binding activity of the antibody conjugated drug to the cells was detected by flow cytometry. […] After centrifugation, the cells were washed and the supernatant was removed, and the cells were resuspended in PBS and then the Alexa Fluor488 signal of each sample was detected by flow cytometry.

BxPC3 cells [6] = assay: Cell killing activity on BxPC3 cells by Cell Counting Kit-8 (CCK8); type: cell-based; conditions: pre-incubated with human serum albumin, 96 hours culture, CCK8 OD450 (FIG.8)
Procedure: as §1

[7] = test system: BxPC3 pancreatic cancer cells; assay: Anti-tumor activity in BxPC3 tumor-bearing mice; type: in vivo; conditions: NCG mice
Procedure: NCG mice were inoculated with BxPC3 pancreatic cancer cells for tumorigenesis. When the tumors grew to about 80mm^3, they were divided into groups, with 6 mice in each group. Three dose groups were set up to be intraperitoneally injected with HuNb1-Alb Nb1-MMAE at 0.2mg/kg, 1mg/kg and 5mg/kg, three times a week, respectively. The negative control group was intraperitoneally injected with PBS. The positive control group was intraperitoneally injected with 150mg/kg Gemcitabine, three times a week.

A431 cells [8] = assay: Binding activity of long-acting Trop2 antibody conjugated drug to A431 cells by flow cytometry
Procedure: as §2, §3

serum albumin = serum albumin (UniProt P02768); assay: relative binding activity against HuNb3-11; method not described
Chain of serum albumin (P02768 25-609 limits assumed): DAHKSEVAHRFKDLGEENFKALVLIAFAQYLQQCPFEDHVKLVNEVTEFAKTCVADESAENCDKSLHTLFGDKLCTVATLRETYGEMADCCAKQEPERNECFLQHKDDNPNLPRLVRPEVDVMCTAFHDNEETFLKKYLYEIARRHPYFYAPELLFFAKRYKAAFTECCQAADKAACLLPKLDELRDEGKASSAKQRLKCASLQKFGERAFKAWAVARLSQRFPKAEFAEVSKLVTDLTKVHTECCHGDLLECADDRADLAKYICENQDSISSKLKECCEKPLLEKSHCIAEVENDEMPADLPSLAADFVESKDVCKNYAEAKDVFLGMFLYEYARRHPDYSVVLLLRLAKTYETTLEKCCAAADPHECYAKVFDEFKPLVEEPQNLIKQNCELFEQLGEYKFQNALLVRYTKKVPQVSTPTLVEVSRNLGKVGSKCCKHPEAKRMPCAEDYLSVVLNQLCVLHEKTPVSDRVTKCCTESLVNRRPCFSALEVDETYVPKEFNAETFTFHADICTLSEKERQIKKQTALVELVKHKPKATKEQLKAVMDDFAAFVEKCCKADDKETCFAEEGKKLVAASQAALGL

B1: Trop2 single domain antibody Nb1 (VHH)
VHH: QVQLQESGGGSVQAGGSLRLSCAASGFTFSRACMGWFRQASGKEREGVAQVYTGGGSTSYADSVKGRFTISQDNAKNTLYLQMNSLKPEDTAVYYCAVGQPYGACYYSDLAPADFSYWGQGTQVTVSS
notes: Camel-derived VHH expressed and purified from E. coli (phage vector pMECS); detected through an HA tag; also called Trop2 Nb1; candidate antibody Nb1; not shown: HA tag (and any other vector-derived tag from pMECS) used for APC anti-HA detection
binding result (Trop2 [1]): binds

B2: humanized Trop2 single domain antibody HuNb1 (VHH)
VHH: EVQLLESGGGLVQPGGSLRLSCAASGFTFSRACMGWFRQASGKGLEGVAQVYTGGGSTSYADSVKGRFTISQDNAKNTLYLQMNSLKPEDTAVYYCAVGQPYGACYYSDLAPADFSYWGQGTLVTVSS
notes: Humanized form of Nb1; also called Trop2 HuNb1; not shown: HA tag used for APC anti-HA detection
binding result (Trop2 [2]): binds

B3: long-acting Trop2 antibody conjugated drug HuNb1-Alb Nb1-MMAE (bispecific antibody)
chain: EVQLLESGGGLVQPGGSLRLSCAASGFTFSRACMGWFRQASGKGLEGVAQVYTGGGSTSYADSVKGRFTISQDNAKNTLYLQMNSLKPEDTAVYYCAVGQPYGACYYSDLAPADFSYWGQGTLVTVSSGGGGSGGGGSGGGGSGGGGSEVQLQESGGGLVEPGGSLRLSCVASGFTFQHYAMSWVRQAPGKGLEWVSSISLVGGGTSYADSVKGRFTMSRDNAKNTLYLQLNSLKSEDTAMYYCVRGWHPDVPRPLGQGTLVTVSSGGC
modifications: vc-PAB-MMAE (Monomethylauristatin E) coupled to the free cysteine (C) at the C-terminus
notes: also called HuNb1-Alb Nb1-GGC conjugated with vc-PAB-MMAE
binding result (Trop2 [3]): binds

B4: HuNb1-Alb Nb1-MMAE: long-acting Trop2 antibody conjugated drug: HuNb1-Alb Nb1-GGC coupled with vc-PAB-MMAE (Monomethylauristatin E) (conjugate)
chain: EVQLLESGGGLVQPGGSLRLSCAASGFTFSRACMGWFRQASGKGLEGVAQVYTGGGSTSYADSVKGRFTISQDNAKNTLYLQMNSLKPEDTAVYYCAVGQPYGACYYSDLAPADFSYWGQGTLVTVSSGGGGSGGGGSGGGGSGGGGSEVQLQESGGGLVEPGGSLRLSCVASGFTFQHYAMSWVRQAPGKGLEWVSSISLVGGGTSYADSVKGRFTMSRDNAKNTLYLQLNSLKSEDTAMYYCVRGWHPDVPRPLGQGTLVTVSSGGC
killing effect on A431 cells (A431 cells [4]): significant killing effect
binding activity to BxPC3 cells (BxPC3 cells [5]; flow cytometry, Alexa Fluor488 signal (FIG.6)): good binding activity
effect of the presence of HSA protein on binding to BxPC3 cells (BxPC3 cells [5]; human blood albumin added during incubation (FIG.6)): not affected by the presence of HSA protein
killing effect on BxPC3 cells (BxPC3 cells [6]): significant killing effect
tumor of high-dose group ([7]; high-dose group (5mg/kg intraperitoneal, three times a week), after treatment for 20 days): completely fades
treatment effect compared with Gemcitabine ([7]; high-dose group versus 150mg/kg Gemcitabine intraperitoneal, three times a week): significantly better than the treatment effect of Gemcitabine
BXPC3 tumor killing activity ([7]; intraperitoneal 0.2mg/kg, 1mg/kg and 5mg/kg, three times a week (FIG.9)): significant BXPC3 tumor killing activity
binding activity to A431 cells (A431 cells [8]; flow cytometry, Alexa Fluor488 signal (FIG.5)): good binding activity
effect of the presence of HSA protein on binding to A431 cells (A431 cells [8]; human blood albumin added during incubation (FIG.5)): not affected by the presence of HSA protein

B5: humanized Trop2 single domain antibody HuNb2 (VHH)
VHH: EVQLLESGGGLVQPGGSLRLSCVDSGSTYSRRYMGWFRRAPGKGLEGVSVISPYGDSTYYADSVKDRFTISRDNAKNTVYLQMNSLKPEDTAMYYCAASWPYQTASLDAMDFTDWGQGTLVTVSS
notes: also called Trop2 HuNb2; not shown: HA tag used for APC anti-HA detection
binding result (Trop2 [1]): binds

B6: anti-serum albumin single domain antibody Alb Nb1 (VHH)
VHH: EVQLQESGGGLVEPGGSLRLSCVASGFTFQHYAMSWVRQAPGKGLEWVSSISLVGGGTSYADSVKGRFTMSRDNAKNTLYLQLNSLKSEDTAMYYCVRGWHPDVPRPLGQGTLVTVSS
Relative binding activity EC50 (serum albumin): 92%

B7: anti-serum albumin single domain antibody Alb Nb3 (VHH)
VHH: EVQLQESGGGLVEPGGSLRLSCVASGFTFQHYAMSWVRQAPGKGLEWVSSISIVGGGTSYADSVKGRFTMSRDNAKNTLYLQLNSLKSEDTAMYYCVRGWHPDVPRPLGQGTLVTVSS
Relative binding activity EC50 (serum albumin): 80%

B8: anti-serum albumin single domain antibody Alb Nb4 (VHH)
VHH: EVQLQESGGGLVEPGGSLRLSCVASGFTFQHYAMSWVRQAPGKGLEWVSSISTVGGGTSYADSVKGRFTMSRDNAKNTLYLQLNSLKSEDTAMYYCVRGWHPDVPRPLGQGTLVTVSS
Relative binding activity EC50 (serum albumin): 71%

B9: anti-serum albumin single domain antibody Alb Nb2 (VHH)
VHH: EVQLQESGGGLVEPGGSLRLSCVASGFTFQHYAMSWVRQAPGKGLEWVSSISVVGGGTSYADSVKGRFTMSRDNAKNTLYLQLNSLKSEDTAMYYCVRGWHPDVPRPLGQGTLVTVSS
Relative binding activity EC50 (serum albumin): 95%
